The results in this text go back to paper PMC4497409, “Structure and functional properties of Norrin mimic Wnt for signalling with Frizzled4, Lrp5/6, and proteoglycan” (eLife, 2015).

The labels stand for the following.
B1: Biotinylated human Norrin wild-type (pHL-Avitag3 construct) (ligand, UniProt Q00604 25-133, looked up)
chain: KTDSSFIMDSDPRRCMRHHYVDSISHPLYKCSSKMVLLARCEGHCSQASRSEPLVSFSTVLKQPFRSSCHCCRPQTSKLKALRLRCSGGMRLTATYRYILSCHCEECNS
modifications: biotin on the C-terminal BirA recognition sequence (in vivo biotinylation)
notes: Norrin (Norrie Disease Protein), human, UniProtKB/Swiss-Prot Q00604; The same plasmids were used in the luciferase reporter assays; also called Norrin WT; source: HEK293T, co-transfected with BirA-ER for in vivo biotinylation, secreted
B2: Frizzled4 cysteine-rich domain (Fz4CRD), human (domain or fragment, UniProt Q9ULV1 42-179, looked up)
chain: ERRCDPIRISMCQNLGYNVTKMPNLVGHELQTDAELQLTTFTPLIQYGCSSQLQFFLCSVYVPMCTEKINIPIGPCGGMCLSVKRRCEPVLKEFGFAWPESLNCSKFPPQNDHNHMCMEGPGDEEVPLPHKTPIQPGE
modifications: N-linked glycans at Asn59 and Asn144 (full, or cut to N-acetylglucosamine by Endo-F1)
notes: Frizzled4 cysteine-rich domain, human, residues 42-179; Glycosylated and deglycosylated samples of the same construct are kept as one molecule; the assay's format tells which was used; also called human Fz4CRD; source: HEK293T, secreted, purified (IMAC, HRV-3C cleavage, IMAC, SEC); with kifunensine and Endo-F1 treatment for crystallisation and the deglycosylated samples; fully glycosylated for …

Where “and” joins values, the source holds several entries; their conditions need not be identical. Equal entries are not always repeated.

The target of test [1] is T1, Frizzled8 cysteine-rich domain, mouse (mouse, UniProt Q61091 30-170).
T1 sequence (looked up): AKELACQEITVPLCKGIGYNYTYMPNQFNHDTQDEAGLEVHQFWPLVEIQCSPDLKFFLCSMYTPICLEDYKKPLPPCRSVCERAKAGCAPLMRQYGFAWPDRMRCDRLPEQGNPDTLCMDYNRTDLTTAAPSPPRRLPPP
In words: SPR; Biacore T200, 25 C, 10 mM HEPES, pH 7.5, 0.15 M NaCl, 0.005% Tween20; biotinylated Norrin variants captured on streptavidin coupled to a CM5 chip; glycosylated FzCRD proteins or Lrp6 P1E1P2E2 as analytes; equilibrium binding, 1:1 Langmuir model; whether the biotinylated Norrin was purified before capture is not told. Background: Surface plasmon resonance follows binding to a sensor surface in real time, without labels.

Test [2] has as its target T2, Lrp6 ectodomain fragment comprising the first two tandem beta-propeller-epidermal growth factor-like domain … (human, UniProt O75581 20-631).
T2 construct: signal peptide in the construct; low-density lipoprotein receptor related protein 6, human, residues 1-631 (P1E1P2E2)
T2 sequence (looked up): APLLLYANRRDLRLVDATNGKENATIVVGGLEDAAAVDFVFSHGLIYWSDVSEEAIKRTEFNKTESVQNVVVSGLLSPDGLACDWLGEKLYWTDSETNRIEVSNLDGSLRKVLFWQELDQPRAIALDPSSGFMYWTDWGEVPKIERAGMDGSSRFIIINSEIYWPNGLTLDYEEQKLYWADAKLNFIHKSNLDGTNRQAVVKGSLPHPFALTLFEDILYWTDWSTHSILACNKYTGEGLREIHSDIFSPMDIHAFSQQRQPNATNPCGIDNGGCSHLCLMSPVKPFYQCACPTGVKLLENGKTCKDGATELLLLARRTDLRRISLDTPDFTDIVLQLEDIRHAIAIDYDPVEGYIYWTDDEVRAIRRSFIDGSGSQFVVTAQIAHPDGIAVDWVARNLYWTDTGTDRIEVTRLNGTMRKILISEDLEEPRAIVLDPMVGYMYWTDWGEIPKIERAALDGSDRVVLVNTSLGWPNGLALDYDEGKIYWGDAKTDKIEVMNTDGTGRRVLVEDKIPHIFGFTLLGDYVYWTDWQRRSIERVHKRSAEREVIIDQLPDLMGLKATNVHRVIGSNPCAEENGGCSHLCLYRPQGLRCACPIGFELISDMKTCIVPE
The test is described as above.

Test [3] concerns the target B2. Described as above.
The target of test [4] is T3, Frizzled5 cysteine-rich domain, mouse (mouse, UniProt Q9EQD0 31-176).
T3 sequence (looked up): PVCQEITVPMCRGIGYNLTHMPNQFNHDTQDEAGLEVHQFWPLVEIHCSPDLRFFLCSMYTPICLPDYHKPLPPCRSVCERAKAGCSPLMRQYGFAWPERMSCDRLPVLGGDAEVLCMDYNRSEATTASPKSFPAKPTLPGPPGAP
Described as above.

Test [5] addresses T4, Norrin (Norrie Disease Protein), recombinant wild-type after removal of the SUMO fusion tag (human, UniProt Q00604 25-133).
T4 construct: Norrin (Norrie Disease Protein), human, UniProtKB/Swiss-Prot Q00604, residues 25-133; Disulphide-linked homodimer (Cys93-Cys95, Cys95-Cys93, Cys131-Cys131); also called untagged Norrin; Norrin wild-type; source: for the complex co-expressed with Fz4CRD in HEK293T with kifunensine and valproic acid, purified (IMAC, SEC); not shown: Strep-II, N-terminal, cleaved; His8, N-terminal, cleaved; SUMO (S. …)
Nature of the test: SAXS; deglycosylated Norrin-Fz4CRD complex at 1.02 and 2.14 mg/ml in 10 mM HEPES, 0.5 M NaCl, without SOS; 293 K. The settings on record: both partners purified.

The target of test [6] is T5, Norrin R107E/R109E/R115L (in the Norrin R107E/R109E/R115L-Fz4CRD complex) (human, UniProt Q00604 25-133, R107E | R109E | R115L).
T5 construct: Norrin, human, UniProtKB/Swiss-Prot Q00604, residues 25-133; source: HEK293T, complex with Fz4CRD, purified (SEC)
Nature of the test: SEC-MALS; Norrin-Fz4CRD complex at 25 uM (glycosylated and deglycosylated), without SOS, on Superdex S200 10/300 GL in 10 mM HEPES, pH 7.5, 0.15 mM NaCl (so in the source). The settings on record: both partners purified.

One may read the Kd as the concentration at which binding is half-saturated. A lower Kd goes with higher affinity. B1: the Kd in test [1] was 64000 nM; in test [2], 2870 nM; in test [3], 1100 nM and 1000 nM; in test [4], 42000 nM.

The term stoichiometry N denotes a count of units in the complex or per binding partner. For the molecule B2, the “stoichiometry N” value in test [5] and in test [6] was 2 Fz4CRD per Norrin dimer (printed 2:2) each time.
